This is an account of results in patent publication US20230272011A1 (AVACTA LIFE SCIENCES, published 2023).

Assay [1] addresses T1, mPD-L1 (mouse, UniProt Q9EP73 19-238, limits assumed).
T1 construct: May be the same reagent as the mouse PD-L1-Fc of the Biacore run
In words: competition ELISA: mPD-L1 pre-incubated with the AFFIMER polypeptide and added to coated mPD-1; blocked ligand mPD-1. As to the method: Briefly, PD-1 was coated overnight on the plate at 1 μg/ml in carbonate buffer. Then plates were saturated using 5% Casein/PBS buffer. […] After saturation, the mix was added to the plates and incubated for 90 minutes. Plates were then washed and the detection polyclonal antibody, biotinylated anti-PD-L1, was added. After washing the plates, streptavidin-HRP was added for 30 minutes. After a final wash, development of the reaction was performed using TMB (Pierce) and the plates were read using a plate reader at 450 nm (FIG. 26C).

In assay [2] the target is T2, cynomolgus serum albumin (cynomolgus).
T2 construct: also called CSA; cyno serum albumin
The assay can be described thus: Octet biolayer interferometry, pH 7.4. As for the experimental part: (§1) Biotinylated antigen was captured onto SA sensors at 1 μg/ml for 600 seconds in a buffer comprising PBS-T (0.01% Tween 20)+1% casein at either pH 6.0 or 7.4. Association was carried out for 300 seconds and dissociation for 600 seconds, and regeneration was performed using 10 mM glycine pH 1.5 (GE Healthcare) for 3×5 seconds. All steps were carried out at 1000 rpm and 25° C. Purified AFFIMER® polypeptide in two-fold serial dilutions was analyzed at a starting concentration of approximately 10× K_{D value}. Kinetics analyses were carried out using the Octet data analysis software, subtracting the reference sensor (loaded with antigen), aligning the Y-axis to baseline, and using inter-step correction to align association to dissociation. Savitzky-Golay filtering was applied and the data processed. Analysis of the data was carried out with a 1:1 model, global fit, Rₘₐₓ unlinked by sensor.
(§2) AFFIMER® polypeptides were incubated with AcTEV for 1 hour at 30° C. as recommend by the manufacturer (Invitrogen) and removal of cleaved His tag by binding NiNTA resin (Generon) and collecting the cleaved protein flow through. […] Pharmacokinetic profile of IV-injected His tag cleaved AFFIMER® protein compared to C-terminally His-tagged AFFIMER® protein was evaluated.

Assay [3] concerns the target T3, human serum albumin (human, UniProt P02768 25-609).
T3 construct: mature; Bought protein; biotinylated in the Octet and HTRF assays; also called HSA; HuSA
The assay can be described thus: Octet biolayer interferometry, pH 7.4. As to the method:
as §1, §2

The target in assay [4] is T4, mouse serum albumin (mouse, UniProt P07724 25-608).
T4 construct: also called MSA
In words: Octet biolayer interferometry, pH 7.4. As to the method: as §1, §2

Assay [5] addresses T2, cynomolgus serum albumin. The assay can be described thus: Octet biolayer interferometry, pH 6.0. As to the method:
as §1, §2

The target of assay [6] is T3, human serum albumin. In words: Octet biolayer interferometry, pH 6.0. As for the experimental part:
as §1, §2

The target in assay [7] is T4, mouse serum albumin. In words: Octet biolayer interferometry, pH 6.0. As to the method: as §1, §2
Assay [8] deals with T2, cynomolgus serum albumin. In words: binding ELISA, coated albumin, pH 7.4. As to the method:
(§3) Briefly, ELISA was performed as follow:
(§4) Human (Sigma-Aldrich); Cynomolgus and Mouse (Abcam); Equine (Abcam); Canine (Abcam); Mouse (Sigma-Aldrich); Rabbit (Sigma-Aldrich); Porcine (Sigma-Aldrich);, and Rat (Sigma-Aldrich) serum albumin were coated overnight on 96 well plates (Corning Costar) at 1 μg/ml in PBS at the appropriate pH (pH 6.0 or 7.4). Plates were saturated using 5% Casein (Sigma-Aldrich) buffer in PBS. […] Plates were then washed and AFFIMER® proteins were detected using a biotinylated polyclonal antibody anti-Cystatin (R&D System) for 90 minutes. After washing, streptavidin-HRP (Thermo Fisher Scientific) was added and incubated for 30 minutes.

Assay [9] concerns the target rabbit serum albumin (rabbit, UniProt P49065 25-608). In words: binding ELISA, coated albumin, pH 7.4. As to the method:
as §3, §4

Assay [10] addresses equine serum albumin (equine, UniProt P35747 25-607). In words: binding ELISA, coated albumin, pH 7.4. As to the method: as §3, §4
In assay [11] the target is T5, canine serum albumin (canine, UniProt P49822 25-608). In words: binding ELISA, coated albumin, pH 7.4. As to the method: as §3, §4
Assay [12] addresses porcine serum albumin (porcine, UniProt P08835 25-607). In words: binding ELISA, coated albumin, pH 7.4. As to the method: as §3, §4
The target in assay [13] is rat serum albumin (rat, UniProt P02770 25-608). The assay can be described thus: binding ELISA, coated albumin, pH 7.4. As to the method: as §3, §4
The target in assay [14] is T3, human serum albumin. The assay can be described thus: binding ELISA, coated albumin, pH 7.4. As to the method:
as §3, §4

The target in assay [15] is T2, cynomolgus serum albumin. The assay can be described thus: BLI (Octet), biotinylated albumin on SA sensor, pH 6.0. As for the experimental part: as §1
The target in assay [16] is T3, human serum albumin. The description is as above. As to the method:
as §1

The target of assay [17] is T4, mouse serum albumin. The assay is described as above. As to the method:
as §1

Assay [18] concerns the target T2, cynomolgus serum albumin. The assay can be described thus: BLI (Octet), biotinylated albumin on SA sensor, pH 7.4. As to the method: as §1
Assay [19] concerns the target T3, human serum albumin. The assay is described as above. As for the experimental part: as §1
Assay [20] deals with T4, mouse serum albumin. The description is as above. As to the method:
as §1

The target of assay [21] is T2, cynomolgus serum albumin. In words: SPR (Biacore T200), albumin amine-coupled to CM5, Affimer analyte, pH 7.4. As for the experimental part:
(§5) Affinities for mouse, human, and cynomolgus serum were also measured at pH 7.4 for four (4) AFFIMER® binders using surface plasmon resonance (SPR) (FIG. 5, Table 5). […] A concentration titration of AFFIMER® monomers was run as analyte at a flow rate of 30 μl/min or 60 μl/min. Fc2-1, Fc3-1 and Fc4-1 kinetic data was blank subtracted and fit to a 1:1 Langmuir binding model (BIAcore Evalution software; GE) to calculate KD values.

The target of assay [22] is T3, human serum albumin. Described as above. As to the method:
as §5

Assay [23] deals with T4, mouse serum albumin. The assay is described as above. As to the method: as §5
Assay [24] deals with T3, human serum albumin. The assay can be described thus: binding ELISA on coated albumin, pH 6.0, panel 'HSA Binding at pH 6.0'. As to the method: as §3, §4
In assay [25] the target is T2, cynomolgus serum albumin. In words: Octet biolayer interferometry, biotinylated albumin on SA sensors, pH 6.0. As for the experimental part:
as §1

The target in assay [26] is T3, human serum albumin. The assay is described as above. As for the experimental part:
as §1

For assay [27], the target named is T4, mouse serum albumin. The description is as above. As for the experimental part: as §1
The target in assay [28] is T2, cynomolgus serum albumin. In words: Octet biolayer interferometry, biotinylated albumin on SA sensors, pH 7.4. As to the method: as §1
For assay [29], the target named is T3, human serum albumin. Described as above. As to the method:
as §1

Assay [30] has as its target T4, mouse serum albumin. The assay is described as above. As to the method: as §1
The target of assay [31] is T5, canine serum albumin. In words: binding ELISA on coated albumin, pH 6.0, panel 'Canine SA Binding at pH 6.0'. As for the experimental part: as §3, §4

T2 sequence (A2V9Z4 25-608): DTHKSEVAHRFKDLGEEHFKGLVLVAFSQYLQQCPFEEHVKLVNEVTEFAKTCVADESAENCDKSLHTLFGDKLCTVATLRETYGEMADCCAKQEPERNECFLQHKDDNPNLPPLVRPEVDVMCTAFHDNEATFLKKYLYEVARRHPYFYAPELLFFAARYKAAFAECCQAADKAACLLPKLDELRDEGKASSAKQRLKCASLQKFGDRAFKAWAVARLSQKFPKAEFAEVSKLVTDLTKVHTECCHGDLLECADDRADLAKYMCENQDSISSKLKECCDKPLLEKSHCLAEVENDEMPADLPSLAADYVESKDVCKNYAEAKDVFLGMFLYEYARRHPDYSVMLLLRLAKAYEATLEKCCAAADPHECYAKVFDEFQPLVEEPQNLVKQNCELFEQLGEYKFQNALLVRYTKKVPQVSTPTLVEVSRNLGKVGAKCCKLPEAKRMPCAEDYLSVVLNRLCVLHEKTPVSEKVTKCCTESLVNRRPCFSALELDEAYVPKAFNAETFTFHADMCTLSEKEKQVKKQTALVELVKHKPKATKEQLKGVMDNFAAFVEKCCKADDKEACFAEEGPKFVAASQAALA
T4 sequence (P07724 25-608 limits assumed): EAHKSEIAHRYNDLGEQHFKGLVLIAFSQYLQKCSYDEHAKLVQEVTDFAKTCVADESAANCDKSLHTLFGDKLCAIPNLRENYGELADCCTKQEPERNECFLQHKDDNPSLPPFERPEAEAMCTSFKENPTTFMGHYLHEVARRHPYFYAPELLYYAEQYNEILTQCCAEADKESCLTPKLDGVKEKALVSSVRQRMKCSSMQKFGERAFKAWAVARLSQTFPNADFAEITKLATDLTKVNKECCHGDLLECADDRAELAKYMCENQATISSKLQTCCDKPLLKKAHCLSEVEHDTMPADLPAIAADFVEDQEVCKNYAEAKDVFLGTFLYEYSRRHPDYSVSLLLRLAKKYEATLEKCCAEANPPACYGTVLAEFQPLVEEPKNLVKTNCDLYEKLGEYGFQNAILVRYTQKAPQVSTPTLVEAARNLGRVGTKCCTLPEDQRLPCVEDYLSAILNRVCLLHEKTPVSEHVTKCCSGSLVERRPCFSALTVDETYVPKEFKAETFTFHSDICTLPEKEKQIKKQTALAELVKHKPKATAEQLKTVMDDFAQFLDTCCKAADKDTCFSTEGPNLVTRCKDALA
T5 sequence (P49822 25-608 limits assumed): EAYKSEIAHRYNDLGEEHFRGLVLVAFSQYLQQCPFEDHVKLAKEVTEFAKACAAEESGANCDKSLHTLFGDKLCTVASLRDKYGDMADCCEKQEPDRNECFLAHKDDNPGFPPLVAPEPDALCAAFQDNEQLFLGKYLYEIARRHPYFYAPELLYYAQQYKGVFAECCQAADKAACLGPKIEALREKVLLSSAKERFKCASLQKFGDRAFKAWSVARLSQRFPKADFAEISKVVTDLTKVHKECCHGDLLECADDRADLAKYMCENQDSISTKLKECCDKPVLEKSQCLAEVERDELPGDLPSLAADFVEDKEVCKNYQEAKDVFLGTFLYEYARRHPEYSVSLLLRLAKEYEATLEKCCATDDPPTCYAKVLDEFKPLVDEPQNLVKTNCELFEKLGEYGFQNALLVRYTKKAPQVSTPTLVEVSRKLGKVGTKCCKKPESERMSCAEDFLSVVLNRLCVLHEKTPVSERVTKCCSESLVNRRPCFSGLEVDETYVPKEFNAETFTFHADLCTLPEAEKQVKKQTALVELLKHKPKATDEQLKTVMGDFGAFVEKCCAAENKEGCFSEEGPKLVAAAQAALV
rabbit serum albumin, sequence (P49065 25-608 limits assumed): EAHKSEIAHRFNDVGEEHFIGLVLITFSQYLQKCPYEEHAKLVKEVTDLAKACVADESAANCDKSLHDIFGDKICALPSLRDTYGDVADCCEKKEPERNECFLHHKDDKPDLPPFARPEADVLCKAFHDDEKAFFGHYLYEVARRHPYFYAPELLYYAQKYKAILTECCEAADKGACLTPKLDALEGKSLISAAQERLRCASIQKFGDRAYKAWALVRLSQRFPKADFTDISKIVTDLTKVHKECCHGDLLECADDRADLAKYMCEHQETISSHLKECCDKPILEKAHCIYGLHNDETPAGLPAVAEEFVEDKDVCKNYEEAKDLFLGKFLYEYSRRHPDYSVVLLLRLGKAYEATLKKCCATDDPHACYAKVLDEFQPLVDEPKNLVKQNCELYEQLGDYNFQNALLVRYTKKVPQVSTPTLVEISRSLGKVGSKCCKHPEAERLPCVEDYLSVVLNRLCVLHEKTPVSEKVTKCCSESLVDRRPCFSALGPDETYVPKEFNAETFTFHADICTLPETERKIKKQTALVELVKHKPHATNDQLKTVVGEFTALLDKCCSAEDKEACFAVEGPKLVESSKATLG
rat serum albumin, sequence (P02770 25-608 limits assumed): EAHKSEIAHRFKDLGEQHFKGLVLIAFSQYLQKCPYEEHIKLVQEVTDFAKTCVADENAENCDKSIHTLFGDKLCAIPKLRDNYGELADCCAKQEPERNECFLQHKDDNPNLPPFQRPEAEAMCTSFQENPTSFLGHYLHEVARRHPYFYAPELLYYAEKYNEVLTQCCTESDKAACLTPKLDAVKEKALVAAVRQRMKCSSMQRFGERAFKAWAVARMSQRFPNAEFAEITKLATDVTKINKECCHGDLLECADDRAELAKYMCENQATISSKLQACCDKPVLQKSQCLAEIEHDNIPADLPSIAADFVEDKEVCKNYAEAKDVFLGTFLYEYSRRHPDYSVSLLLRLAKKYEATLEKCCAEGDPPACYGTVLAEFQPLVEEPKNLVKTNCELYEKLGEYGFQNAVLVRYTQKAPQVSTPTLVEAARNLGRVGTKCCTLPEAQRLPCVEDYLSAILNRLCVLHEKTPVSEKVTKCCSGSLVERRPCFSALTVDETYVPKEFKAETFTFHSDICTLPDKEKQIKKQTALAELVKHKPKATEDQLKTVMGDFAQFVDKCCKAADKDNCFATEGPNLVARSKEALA
equine serum albumin, sequence (P35747 25-607 limits assumed): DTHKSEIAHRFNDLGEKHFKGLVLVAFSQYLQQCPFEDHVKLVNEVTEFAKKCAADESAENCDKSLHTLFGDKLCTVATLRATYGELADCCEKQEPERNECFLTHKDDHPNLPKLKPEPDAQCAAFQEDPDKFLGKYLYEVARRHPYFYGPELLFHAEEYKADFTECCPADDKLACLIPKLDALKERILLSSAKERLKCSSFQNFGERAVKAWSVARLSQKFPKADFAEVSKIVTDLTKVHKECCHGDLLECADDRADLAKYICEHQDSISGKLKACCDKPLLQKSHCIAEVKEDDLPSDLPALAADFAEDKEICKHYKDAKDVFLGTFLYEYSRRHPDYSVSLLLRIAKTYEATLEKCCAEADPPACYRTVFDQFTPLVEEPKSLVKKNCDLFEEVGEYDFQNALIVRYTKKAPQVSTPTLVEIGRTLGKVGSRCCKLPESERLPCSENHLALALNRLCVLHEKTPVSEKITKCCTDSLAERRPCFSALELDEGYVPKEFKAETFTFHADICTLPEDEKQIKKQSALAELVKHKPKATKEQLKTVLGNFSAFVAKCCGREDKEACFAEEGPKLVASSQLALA
T1 sequence (Q9EP73 19-238 limits assumed): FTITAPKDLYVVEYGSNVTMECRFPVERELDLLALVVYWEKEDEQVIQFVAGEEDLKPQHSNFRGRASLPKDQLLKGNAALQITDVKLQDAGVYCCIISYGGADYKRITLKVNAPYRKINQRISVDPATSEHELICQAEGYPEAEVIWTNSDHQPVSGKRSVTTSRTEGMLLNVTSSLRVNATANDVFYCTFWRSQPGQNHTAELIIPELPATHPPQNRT
porcine serum albumin, sequence (P08835 25-607 limits assumed): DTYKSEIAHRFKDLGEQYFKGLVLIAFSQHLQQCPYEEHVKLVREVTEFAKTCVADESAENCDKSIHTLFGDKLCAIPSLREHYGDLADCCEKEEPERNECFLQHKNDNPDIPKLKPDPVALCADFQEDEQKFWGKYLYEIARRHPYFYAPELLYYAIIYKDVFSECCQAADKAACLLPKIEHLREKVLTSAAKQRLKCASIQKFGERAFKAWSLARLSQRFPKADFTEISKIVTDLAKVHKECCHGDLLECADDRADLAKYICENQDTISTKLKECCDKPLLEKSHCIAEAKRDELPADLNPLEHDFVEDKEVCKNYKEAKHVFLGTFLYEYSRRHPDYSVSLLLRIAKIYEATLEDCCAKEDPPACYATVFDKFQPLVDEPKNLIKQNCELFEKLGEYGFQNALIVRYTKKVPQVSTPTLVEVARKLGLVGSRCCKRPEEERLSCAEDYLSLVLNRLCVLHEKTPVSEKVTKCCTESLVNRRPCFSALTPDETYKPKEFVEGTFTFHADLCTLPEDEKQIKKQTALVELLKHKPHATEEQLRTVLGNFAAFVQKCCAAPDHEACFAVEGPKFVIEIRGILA

B1: AVA04-182 (designed binder)
chain: MIPRGLSEAKPATPEIQEIVDKVKPQLEEKTNETYGKLEAVQYKTQVLAFALPEFEYMSTNYYIKVRAGDNKYMHLKVFNGPPMIRRKNEVADRVLTGYQVDKNKDDELTGF
notes: also called its control
In [1], B1 registered an IC50 of 112 nM.

B2: HSA-41, C-terminal 6x His tag cleaved (designed binder)
chain: MIPRGLSEAKPATPEIQEIVDKVKPQLEEKTNETYGKLEAVQYKTQVLANFFQRRWPGSTNYYIKVRAGDNKYMHLKVFNGPWKFRNTDRGADRVLTGYQVDKNKDDELTGFEQKLISEEDL
notes: also called His tag cleaved AFFIMER protein; C-terminally His tag cleaved AFFIMER lead clone
With B2, the dissociation constant Kd in [2] is 280 nM; in assay [3], 7.65 nM; in assay [4], 104 nM; in assay [5], 189 nM; in assay [6] it was 4.71 nM; in [7], 38.1 nM.

B3: HSA-36 (designed binder)
chain: MIPRGLSEAKPATPEIQEIVDKVKPQLEEKTNETYGKLEAVQYKTQVLAGHYARYWPGSTNYYIKVRAGDNKYMHLKVFNGPWAQKSKVHQADRVLTGYQVDKNKDDELTGFHHHHHH
B3: the 50% effective concentration (EC50) in assay [8] amounted to 447 nM; in assay [9], 863 nM; in assay [10] it was 662 nM; in assay [11], 383 nM; in assay [12], 268 nM; in assay [13], 9.73 nM. Moreover, in assay [14], the EC50 came out at 687 nM. Also, the Kd was determined as 1140 nM in [15]; 132 nM in assay [16]; 435 nM in assay [17]; 2600 nM in assay [18]; 136 nM in assay [19]; 244 nM in assay [20]. Further, the results for the Kd in assay [21], in assay [22] and in assay [23] were 1510 nM, 200 nM and 207 nM, respectively. Further, the off-rate constant (koff) in [21] turned out to be 0.16 s⁻¹; in assay [22] it was 0.00451 s⁻¹; in [23], 0.15 s⁻¹; in [25] it was 0.0123 s⁻¹; in assay [26] it was 0.00175 s⁻¹; in [27] it was 0.0874 s⁻¹. In addition, the off-rate (koff) worked out at 0.0505 s⁻¹ in assay [28] and 0.00257 s⁻¹ in assay [29]. Moreover, the kon in assay [21] is 106000 M⁻¹ s⁻¹; in [22] it was 22500 M⁻¹ s⁻¹; in [23] it was 726000 M⁻¹ s⁻¹; in assay [25] it was 10800 M⁻¹ s⁻¹; in assay [26], 15400 M⁻¹ s⁻¹; in assay [27], 200000 M⁻¹ s⁻¹. The kon in assay [29] is 18900 M⁻¹ s⁻¹; in [30], 215000 M⁻¹ s⁻¹. In addition, the “EC50 (read off the curve)” value is about 400 nM in assay [24] and about 200 nM in assay [31].
